Data: patent US20190041402A1 (GOVERNING COUNCIL OF THE UNIVERSITY OF TORONTO, published 2019)

Target: T1, rat αKlotho (endogenous) (rat, UniProt Q9Z2Y9 35-983)
T1 sequence (looked up): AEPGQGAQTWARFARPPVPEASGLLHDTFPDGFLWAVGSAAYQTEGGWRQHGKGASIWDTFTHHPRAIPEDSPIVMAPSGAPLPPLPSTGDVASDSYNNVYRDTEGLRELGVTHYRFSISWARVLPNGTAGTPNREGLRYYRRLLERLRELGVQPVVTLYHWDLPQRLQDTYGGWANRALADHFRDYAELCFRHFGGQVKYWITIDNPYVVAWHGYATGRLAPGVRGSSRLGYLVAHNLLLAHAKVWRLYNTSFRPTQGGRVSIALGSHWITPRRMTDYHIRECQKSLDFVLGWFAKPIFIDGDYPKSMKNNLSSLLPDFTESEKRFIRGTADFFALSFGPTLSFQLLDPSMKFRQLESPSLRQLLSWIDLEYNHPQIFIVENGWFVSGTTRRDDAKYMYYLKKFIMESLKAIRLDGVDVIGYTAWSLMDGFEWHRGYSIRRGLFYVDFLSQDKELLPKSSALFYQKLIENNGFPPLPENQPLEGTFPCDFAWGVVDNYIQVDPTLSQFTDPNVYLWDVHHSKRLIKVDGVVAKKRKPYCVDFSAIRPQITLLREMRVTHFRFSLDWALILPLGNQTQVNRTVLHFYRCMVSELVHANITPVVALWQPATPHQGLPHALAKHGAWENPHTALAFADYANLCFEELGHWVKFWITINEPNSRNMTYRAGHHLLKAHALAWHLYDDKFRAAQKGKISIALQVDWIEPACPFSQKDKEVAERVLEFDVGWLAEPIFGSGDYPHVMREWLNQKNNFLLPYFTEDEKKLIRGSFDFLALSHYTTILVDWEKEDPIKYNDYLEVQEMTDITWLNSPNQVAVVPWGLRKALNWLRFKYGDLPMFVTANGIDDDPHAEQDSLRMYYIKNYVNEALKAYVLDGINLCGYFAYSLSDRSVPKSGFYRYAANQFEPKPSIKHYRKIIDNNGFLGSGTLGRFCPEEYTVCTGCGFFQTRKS
Test: immunoprecipitation-immunoblot, serum and urine; native soluble αKlotho in rat serum; immunoprecipitation-immunoblot
Method: The ELISA was performed as instructed by the manufacturer (Immuno-Biological Laboratory, Japan). For the IP-IB assay, typically 50 μl of serum or urine were diluted with KRH buffer [25 mM Hepes-NaOH (pH 7.4), 120 mM NaCl, 5 mM KCl, 1.2 mM MgSO4, 1.3 mM CaCl2, 1.3 mM KH2PO4] to a final volume of 0.5 ml incubated with 2 μg of sb106-Fab overnight at 4° C. in low binding, siliconized tubes. Sepharose beads (50 μL) conjugated with anti-FLAG antibody (50% v/v) prewashed 3× with KRH buffer were added, incubated (4° C.×2 h), and washed (KRH-500 μl per tube ×3; 22° C.). The immune complex was eluted with 2×SDS sample loading buffer (50 μl; 100° C.×3 min; 4° C.×3 min; spun), and fractionated by SDS-PAGE, transferred to nitrocellulose membranes and blotted with anti-KL1 antibody (KM2076, 1:4000 or 3.1 mg/mL, 1:10000 dilution) and diluent (Dako#S3022, Carpinteria, Calif., USA) overnight (4° C., rocker). The membrane was washed (×3, Tris-buffered saline with 0.1% Tween; TBS-T), exposed to anti-rat IgG2A (LSBio cat#LS-059051, 1:20000 in 5% milk/2% goat serum/TBS-T×1 h) and washed (×3 TBS-T). For chemiluminescence, the membrane was covered with SuperSignal West Femto Maximum Sensitivity substrate (Thermo Scientific, Rockford, Ill., USA) and exposed for 30-90 s. The 130-kD bands were scanned, and density was compared with internal control samples of know amount of Klotho using Adobe Photoshop CS4.

binding result: binds
B1: sb106 Fab (Fab, V domains shown)
VH: EVQLVESGGGLVQPGGSLRLSCAASGFNISYYSIHWVRQAPGKGLEWVAYISPSYGYTSYADSVKGRFTISADTSKNTAYLQMNSLRAEDTAVYYCARYYVYASHGWAGYGMDYWGQGTLVTVSS
VL: DIQMTQSPSSLSASVGDRVTITCRASQSVSSAVAWYQQKPGKAPKLLIYSASSLYSGVPSRFSGSRSGTDFTLTISSLQPEDFATYYCQQAGYSPITFGQGTKVEIKR
notes: also called Fsb106; clone 48
